{"source": "the domain aggregation screens of Martell et al. (2025)"}
{"assay": "soluble fraction after stress (log2 fold change); higher = more stays soluble; pooled small domains, quantitative proteomics", "settings": "stress: pH 4", "method_in_brief": "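With high-throughput quantitative proteomics, pooled custom libraries of small protein domains were measured after pH 4 stress. Each domain's soluble amount after the stress gives a fold change taken as aggregation propensity. Higher log2 values mean more of the domain stayed soluble.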"}
{"sequence": "HMQDLEIKINLGMTYYEVREAIGSPDIIDKINQYGRDFQMWTYYIDDKTKRYYFEDHLLTKI", "soluble fraction (log2)": -1.65}
{"sequence": "HMQDLPPIHLSRGMTDYTLVRSRRRTLSMELKRDGTVVVHAPLRLGVEKIDAFVAAHEAWLARARTRQAER", "soluble fraction (log2)": 0.196}
{"sequence": "HMQDNPELVARIEKAAARGTSSMSDWERSFMGSLLDSAKKWGRLTAKQHEVFQRIEKKTDPAHQAAVS", "soluble fraction (log2)": 0.0292}
{"sequence": "HMQDPRITRTRGLILQAFDALLVEKGFHALSVQAIAGRAGINRATFYAHFADKYALLDTSIQE", "soluble fraction (log2)": 0.081}
{"sequence": "HMQDREKNIAEGRDIIEHEFMRLGISLSRYDLDGLASKLNVKAGDDVLAGVGAGDIRVSQIISQLG", "soluble fraction (log2)": -0.747}
{"sequence": "HMQDTVKNVFGAFTIFTDKPFAIGDTINVNGLEGTVVDVGMRSTQILGYDRRITSYPNYKITDSSIVNISS", "soluble fraction (log2)": -0.636}
{"sequence": "HMQDVVFTVDKDQTGAEIGDMLYEKGIISSPTTFRLALRLTGSMDKLQQGYYQIPQNASLRQVIALLQKG", "soluble fraction (log2)": -0.522}
{"sequence": "HMQDYYTQSDFARYLEDKGIHFPQNKIAVYRKRGKFPKEDLVVAGTPYWSKYTVESFAKHLLEQQN", "soluble fraction (log2)": 0.302}
{"sequence": "HMQEAATSLNAKILAKLRENNGTLAVSDKSDPALISSLFGVSKGNFKKAIGALYKNGQIVIHADRIEL", "soluble fraction (log2)": 0.00478}
{"sequence": "HMQEDQKTSIFDIEGVEKGVASVLSSIKVEIVSDLLEADMDDILKSGKISEDDLDGVYEAVQNFVER", "soluble fraction (log2)": -1.28}
{"sequence": "HMQELNDQQRLAILNEWNNRATNPPSLLELVRVAFPDAEGADGRSWHGKKVKEFLSTRQIKARAS", "soluble fraction (log2)": -0.282}
{"sequence": "HMQENFYMILESEERRVLDVLVADQPESVATFLKLVSPFPNYKIILEHINEKALDFYEETVI", "soluble fraction (log2)": -0.666}
{"sequence": "HMQESTILPAQKSAISSLATSAGFSSENLKRYLLQNYGVDLKDLTRSQGAEVIKAFQSGNVSKP", "soluble fraction (log2)": 0.246}
{"sequence": "HMQETPAMLAMKELPTEDEQRIYMMLQEDYDSVLLVKTIRNAFSQNPQLTRQQLLPIILTWLMT", "soluble fraction (log2)": -1.08}
{"sequence": "HMQGATVYIKSDDIGKTTNEQGSFNFDKLKKNRYTLEISFIGYETKNLQAYTDRENIVQLNRKS", "soluble fraction (log2)": -0.527}
{"sequence": "HMQGEVPYSQFLTEVDRGDVQSVVIEGNNISGFYKNSSTAFTVVAPDDPKLVERLMEQGVEVKARPV", "soluble fraction (log2)": "≥ 0.43"}
{"sequence": "HMQGEVVTNRSVIDMSRAGLSADIIRAKILRSDTNFDVTAKALIELKESGVPDDIIALMLERADS", "soluble fraction (log2)": -0.218}
{"sequence": "HMQGIPVTVTAERANLRSGPGTSFDKLGQVVQGDVLTLLEVQNDWYKVKTAEGKTAFVAAYLVNSP", "soluble fraction (log2)": 0.0179}
{"sequence": "HMQGQADFTQGIANFTQYPVGSRITVFTLEGRRVAVVEIGKDGTAQLDMRNKPAGVYIVNTGKQSFKWLK", "soluble fraction (log2)": -0.0678}
{"sequence": "HMQGRIYLNPDLAEKLRAQYAAYPHWSYLLHTENLGALVRKTESLGPMPSYSTILRYMHANDMRKRNKP", "soluble fraction (log2)": -0.149}
{"sequence": "HMQGVNLTETEKNFIAQVLSPLLKQGQSLYQIRTNHPEIKLSVKTLYTYIESGIFKESGINNFSLRRQ", "soluble fraction (log2)": -0.319}
{"sequence": "HMQILNVFSKHGIKPISPQIGDKFDPQLHEAMFEAPVPGTKAGDIIEVSSEGFMLYDRLLRPAHVGVSSN", "soluble fraction (log2)": -0.138}
{"sequence": "HMQILPAFLPENPELRARLANHSLEELTEILKQYKTLHNSTDVDTVKRAIRAIEIEEYYAVHPV", "soluble fraction (log2)": -0.635}
{"sequence": "HMQINLKQSSDEELVKIITVQVHHYEPHTVKAAEAEIERRGIDKMRMAHLVKKVAQENTAVQEIQD", "soluble fraction (log2)": 0.134}
{"sequence": "HMQISDDSELIKIVDNILANSQKQIDDYHNGKTNLFGFFVGQVMKETKGKANPVKVNEILKDKL", "soluble fraction (log2)": 0.102}
{"sequence": "HMQISDSSLIAKTVATVILENPEAVSDYLGGKHSVVRFMVGQIMKKTQGKANPKMATEMLETALNDL", "soluble fraction (log2)": 0.352}
{"sequence": "HMQISDTTELSTLITKVLSEQSDALVDFKNPKKQKQVIGYLTGQVLRASQGKANPGLVRSLLEEQLSALDS", "soluble fraction (log2)": 0.0677}
{"sequence": "HMQISMQNIASVKIDDLSDEQIQEFSTKYTAAGYSFPDVENVAKQKGMPSSEIEKLRQRVLTAQNTQEK", "soluble fraction (log2)": -0.346}
